Results: PMC10350915, “Development of a New Class of CXCR4-Targeting Radioligands Based on the Endogenous Antagonist EPI-X4 for Oncological Applications” (Journal of Medicinal Chemistry, 2023)
Square brackets hold non-standard residues; d marks the D form. Peptide text beside a SMILES is read from it. * marks the point of attachment. DOTA = O=C(O)CN1CCN(CC(=O)O)CCN(CC(=O)*)CCN(CC(=O)O)CC1

Assays:
[1] = Shelf-life of 177Lu-labeled ligands at room temperature (radio-HPLC); format: physicochemical
Experimental: The shelf-life of each ^177Lu-labeled ligand was monitored at room temperature up to 24 h after radiolabeling.
The shelf-lives of ^177Lu-labeled ligands were assessed at room temperature (RT) in the buffer used for labeling, as described above. For the analysis, 5 μL was withdrawn at desired time points (0, 1, 2, 4, and 24 h) from the stock solution and mixed with 50 μL of the Ca-DTPA solution. 20 μL of this mixture was withdrawn and injected in RP-HPLC.

[2] = tested on: Jurkat xenografts; assay: in vivo; settings: female, athymic nude-Foxn1^nu/Foxn1^+, mouse, iv, 200 pmol, 1 h
Experimental: (§1) Quantification of the total body distribution of ^177Lu-7 and ^68Ga-7 was performed in Jurkat xenografted mice after intravenous injection of 100 μL, 200 pmol, with […], respectively (n = 5). The mice were sacrificed at 1 h p.i. ^177Lu-7 and ^68Ga-7 accumulated mainly in the kidneys (83.1 ± 25.5 and 75.6 ± 30.3%IA/g, respectively, p = 0.59), liver (5.19 ± 1.08 and 4.08 ± 1.05%IA/g, respectively, p = 0.07) and tumor (2.25 ± 0.43 and 2.24 ± 0.57%IA/g, respectively, p = 0.97), as already seen in the SPECT/CT and PET/CT images (Figures 6 and 7). Uptake in the tumor was lower than for the kidneys and liver but higher as in all other tissues investigated. […] The uptake seen in the liver might be attributed, at least partially, to the fact that CXCR4 is constitutively expressed in the sinusoidal endothelial cells of the murine liver[38] or could be related to another yet-unknown mechanism previously reported for other CXCR4-targeting probes.[11],[39] Regretfully, there are no direct measurements available for the affinity of ^177Lu-7 with the murine CXCR4 (mCXCR4). This is relevant for assessing its total body distribution. However, we have shown that EPI-X4 and EPI-X4 derivatives are active in mouse models of inflammatory diseases[22],[25] and cancer.[40] More specifically, EPI-X4 derivatives such as JM#21 reduced immune cell influx in lungs of mice suffering from allergic asthma or reduced skin inflammation in a murine model of atopic dermatitis upon topical administration. […] Thus, we speculate that the DOTA conjugate of JM#173 (ligand-7) also cross-reacts to the mCXCR4. […] Last, but not the least, the uptake in the kidneys was predominant, and given the highly hydrophilic character of ^177Lu-7, is attributed, at least partially, to its excretion via this path.
(§2) The experimental protocol involving animals was approved by the Veterinary Office (Department of Health) of the Cantonal Basel-Stadt (Approval No. 30515) in accordance with the Swiss regulations for animal treatment. Female athymic nude-Foxn1^nu/Foxn1^+ mice (Envigo, The Netherlands), 4–6 weeks old, were injected subcutaneously with 10^7 Jurkat cells in a 200 μL (1:1) mixture of PBS and Matrigel (CorningMatrigelMembrane matrix, Fischer Scientific, Germany) on the right shoulder. The tumors were allowed to grow for 3–4 weeks before commencement of the experiments.
(§3) Quantitative biodistribution studies of ^177Lu-7 (100 μL, 200 pmol, 0.8–1 MBq) and ^68Ga-7 (100 μL, 200 pmol, 2–3 MBq) were performed after intravenous injection of the radioligand via the tail vein on Jurkat xenografts. […] 1 h after injection of the radioligand, mice were sacrificed, organs of interest and blood were collected, rinsed of excess blood, blotted dry, weighed, and counted in a γ-counter. The samples were counted against a suitable diluted aliquot of the injected solution as the standard and the results are expressed as percentage injected activity per gram of tissue (%IA/g). Statistical analysis between selected organs was performed by Welch’s t-test and p values <0.05 were considered statistically significant.

[3] = in vivo; settings: female, athymic nude-Foxn1^nu/Foxn1^+, mouse, iv, 200 pmol, total radioactivity
Experimental: as §1, §2, §3

SMILES: CC[C@@H](C)[C@@H](N)C(=O)N[C@@H](CC(C)C)C(=O)N[C@@H](CCCNC(=N)N)C(=O)N[C@@H](Cc1c[nH]c2ccccc12)C(=O)N[C@@H](CO)C(=O)N[C@@H](CCCNC(=N)N)C(=O)N[C@@H](CCCCN)C(=O)N[C@@H](CCCCNC(=O)CN1CCN(CC(=O)O)CCN(CC(=O)O)CCN(CC(=O)O)CC1)C(N)=O [^177Lu-7, metal not drawn] (H-[dI]LRWSRKK(DOTA)-NH2; N-terminus assumed)
- radiochemical purity (%) ([1]; 0 h after radiolabeling): 98 ± 1%
- radiochemical purity (%) ([1]; 1 h after radiolabeling): 95 ± 0%
- radiochemical purity (%) ([1]; 2 h after radiolabeling): 94 ± 0%
- radiochemical purity (%) ([1]; 4 h after radiolabeling): 88 ± 3%
- uptake in adrenal [2]: 1.09 ± 0.42 % IA/g
- tissue uptake at 1 h ([3]; uptake in blood): 0.42 ± 0.12 %ID/g
- tissue uptake at 1 h ([3]; uptake in femur): 1.06 ± 0.28 %ID/g
- tissue uptake at 1 h ([3]; uptake in heart): 0.21 ± 0.05 %ID/g
- tissue uptake at 1 h ([3]; uptake in intestine): 0.37 ± 0.1 %ID/g
- tissue uptake at 1 h ([3]; uptake in kidney): 83.1 ± 25.5 %ID/g
- tissue uptake at 1 h ([3]; uptake in liver): 5.19 ± 1.08 %ID/g
- tissue uptake at 1 h ([3]; uptake in muscle): 0.27 ± 0.14 %ID/g
- tissue uptake at 1 h ([3]; uptake in pancreas): 0.14 ± 0.02 %ID/g
- tissue uptake at 1 h ([3]; uptake in spleen): 0.81 ± 0.16 %ID/g
- tissue uptake at 1 h ([3]; uptake in stomach): 0.3 ± 0.06 %ID/g
- tissue uptake at 1 h ([3]; uptake in tumor): 2.25 ± 0.43 %ID/g
